For 1 molecule, binding result, fold MFI against the blank control and MFI results are on record in patent CN114736300A (SUZHOU ABCARTA MEDICAL TECH CO LTD, dated 2022).

No end group written: not given here.

For one experiment, the target named is T1, HER2抗原合成多肽 (SEQ ID No.1) (not fully specified; also: coupled to KLH or OVA for immunisation).
T1 construct: It was coupled to KLH or OVA for immunisation; also called HER2的多肽
T1 peptide: PTAENPEYLGLDVPV
In words: ELISA screening of hybridoma clones on the HER2 antigen (SEQ ID NO.1). For orientation: In an ELISA, binding on a coated surface is turned into a signal by an enzyme label.

Experiment [1] addresses HER2蛋白 (表达HER2蛋白的细胞) (UniProt P04626). Put plainly: flow cytometry on cells expressing HER2, against the blank control without antibody.
For experiment [2] the target is unchanged. Put plainly: flow cytometry on 1×10^6 cells expressing HER2, 0.5 μg antibody, Alexa Fluor 488 goat anti-rabbit secondary. A general note: A flow cytometer gives signals particle by particle.

B1: 246G0D3抗HER2重组兔单克隆抗体 (antibody, V domains shown)
VH: QSVEESGGRLVTPGTPLTLTCTVSGFSLSSYAMSWVRQAPGKGLEYIGIIRSSGSTYYASWAKGRFTISKTSTTVDLKLTSPTSEDTATYFCCRGSPGSGSGYSVLWGQGTLVTVSS
VL: AAVLTQTPSPVSAAVGGTVSISCQSSKSVYNNNCLAWYQQKPGQPPKLLIYGASTLASGVPSRFKGSGSGTQFTLTISDVQCDDAATYYCAGGYTDDSDDGFGGGTEVVVK
notes: also called 246G0D3抗体; 246G0D3抗HER2单克隆抗体
Take B1: in the experiment with HER2抗原合成多肽 (SEQ ID No.1), the binding result is listed as “binds”. The fold MFI against the blank control with HER2蛋白 (表达HER2蛋白的细胞) [1] was 251 倍. Also, in the experiment with HER2蛋白 (表达HER2蛋白的细胞) [2], the MFI amounted to 2480.
